Results from patent publication US20230192839A1 (published 2023).

Assays:
[1] = target: T1, human epidermal growth factor receptor antigen (human, UniProt P00533 25-645, limits assumed); assay: SPR (Biacore T200), 37 C; KD at 10 uM MTX / KD at 0 uM MTX
T1 construct: whole entry named; also called EGFR
Protocol: (§1) All binding kinetics analysis was performed on label-free Biacore surface plasmon biosensors (Biacore T200™ from GE Life Sciences) at 37° C. in 10 mM Hepes pH 7.4, 150 mM NaCl, 0.05% Tween-20 (HBST+), with or without 10 µM MTX. The Biacore data were processed in Biacore T200 Evaluation Software, and the data were double-referenced (Myszka, 1999, J Mol Recognit 12(5):279-284) and fit globally to a simple Langmuir with mass transport model to determine the equilibrium dissociation constant, KD, from the ratio of the kinetic rate constants (KD = koff/kₒₙ). In some cases the binding of antigen was very low (or not detectable) in the presence of 10 µM MTX and as a result kinetic rate constants could not be accurately determined. In these cases, a KD (or KD limit) was estimated based on the binding response at the highest analyte concentration tested or based on the typical limit of detection for a Biacore T200.
(§2) The first 4 rounds of panning used biotinylated EGFR antigen captured on streptavidin or neutravidin coated 96-well plates. […] 1536 clones were randomly chosen from the 4th and 5th round of panning against the EGFR antigen and their binding specificity determined by phage ELISA.

[2] = target: T1, human epidermal growth factor receptor …; assay: SPR (Biacore T200), 37 C, scFv-Fc, 10 uM MTX
Protocol: as §1, §2
(§3) “*”: For interactions where kₒₙ and koff are reported, the KD was calculated using koff/kₒₙ.

[3] = target: T1, human epidermal growth factor receptor …; assay: SPR (Biacore T200), 37 C, scFv-Fc, 0 uM MTX
Protocol: as §1, §2

human CD33 antigen [4] = target: T2, human CD33 antigen (human, UniProt P20138 18-259, limits assumed); assay: SPR (Biacore T200), 37 C, scFv-Fc, 10 uM MTX; KD estimated, rate constants not determined
T2 construct: whole entry named; also called Siglec-3
Protocol: as §1, §3

human CD33 antigen [5] = target: T2, human CD33 antigen; assay: SPR (Biacore T200), 37 C; KD at 10 uM MTX / KD at 0 uM MTX
Protocol: as §1

human CD33 antigen [6] = target: T2, human CD33 antigen; assay: SPR (Biacore T200), 37 C, scFv-Fc, 0 uM MTX
Protocol: as §1

T2 sequence (P20138 18-259 limits assumed): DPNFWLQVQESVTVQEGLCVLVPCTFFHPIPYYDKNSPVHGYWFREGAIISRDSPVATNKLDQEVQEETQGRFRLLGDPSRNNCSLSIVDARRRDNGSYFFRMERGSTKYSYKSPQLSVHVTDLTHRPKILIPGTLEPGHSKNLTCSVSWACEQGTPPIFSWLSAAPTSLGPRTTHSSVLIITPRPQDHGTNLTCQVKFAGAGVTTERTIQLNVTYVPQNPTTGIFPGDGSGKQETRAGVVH

Row | Binder | Ratio: KD with MTX / KD without MTX [1] | Kd [2] | koff [2] | kon [2] | Kd [3] | koff [3] | kon [3] | Kd (human CD33 antigen [4]) | Ratio: KD with MTX / KD without MTX (human CD33 antigen [5]) | Kd (human CD33 antigen [6]) | koff (human CD33 antigen [6]) | kon (human CD33 antigen [6])
1 | P01_A09 scFv-Fc fusion (scFv, V domains shown, Tested as scFv-Fc fusion) VH: QVQLVESGGGLVQAGGSLRLSCAASRRSSRSWAMHWVRQAPGKGLEWVAVISYDGRLKYYADSVKGRFTISRDNAEYLVYLQMNSLRAEDTAVYYCAAERPTSDGSTGGMDVWGQGTLVTVSS VL: DIQMTQSPSSLSASVGDRVTITCRASQSISSYLNWYQQKPGKAPKLLIYGASTLQSGVPSRFSGSGSGTDFTLTISSLQPEDFATYYCQQSYSSGTFGQGTKVEIK | – | – | – | – | – | – | – | 1300 nM | 8.5 | 154 nM | 0.017 s⁻¹ | 110000 M⁻¹ s⁻¹
2 | P02_E11 scFv-Fc fusion (scFv, V domains shown, Tested as scFv-Fc fusion) VH: QVQLVESGGGLVQAGGSLRLSCAASRRSSRSWAMHWVRQAPGKGLEWVAVISYDGRLKYYADSVKGRFTISRDNAEYLVYLQMNSLRAEDTAVYYCAAEASTDNGLDYWGQGTLVTVSS VL: DIQMTQSPSSLSASVGDRVTITCRASQTISRHLNWYQQKPGKAPKLLIYSASSLASGVPSRFSGSGSGTDFTLTISSLQPEDFATYYCQQSHSAGTFGQGTKVEIK | – | – | – | – | – | – | – | 14600 nM | 221 | 66 nM | 0.0038 s⁻¹ | 58000 M⁻¹ s⁻¹
3 | P03_A01 scFv-Fc fusion (scFv, V domains shown, Tested as scFv-Fc fusion) VH: QVQLVESGGGLVQAGGSLRLSCAASRRSSRSWAMHWVRQAPGKGLEWVAVISYDGRLKYYADSVKGRFTISRDNAEYLVYLQMNSLRAEDTAVYYCAAETGSVGLDYWGQGTLVTVSS VL: DIQMTQSPSSLSASVGDRVTITCRASQGISTYLNWYQQKPGKAPKLLIYGATSLESGVPSRFSGSGSGTDFTLTISSLQPEDFATYYCQQGYSQGTFGQGTKVEIK | – | – | – | – | – | – | – | 4270 nM | 37 | 115 nM | 0.0057 s⁻¹ | 50000 M⁻¹ s⁻¹
4 | P02_H01 scFv-Fc fusion (scFv, V domains shown, Tested as scFv-Fc fusion) VH: QVQLVESGGGLVQAGGSLRLSCAASRRSSRSWAMHWVRQAPGKGLEWVAVISYDGRLKYYADSVKGRFTISRDNAEYLVYLQMNSLRAEDTAVYYCAAGSGGGDGLDVWGQGTLVTVSS VL: DIQMTQSPSSLSASVGDRVTITCRASQTISSYLNWYQQKPGKAPKLLIYSSSTLQGGVPSRFSGSGSGTDFTLTISSLQPEDFATYYCQQSYSSGTFGQGTKVEIK | – | – | – | – | – | – | – | 4340 nM | 3.3 | 1320 nM | 0.037 s⁻¹ | 28000 M⁻¹ s⁻¹
5 | P01_B06 scFv-Fc fusion (scFv, V domains shown, Tested as scFv-Fc fusion) VH: QVQLVESGGGLVQAGGSLRLSCAASRRSSRSWAMHWVRQAPGKGLEWVAVISYDGRLKYYADSVKGRFTISRDNAEYLVYLQMNSLRAEDTAVYYCAADTSMFASYDPMDVWGQGTLVTVSS VL: QSVLTQPPSASGTPGQRVTISCSGSSSNIGRNYVNWYQQLPGTAPKLLIYRDDHRPSGVPDRFSGSKSGTSASLAISGLRSEDEADYYCASWDDTLSGWVFGTGTKLTVL | 1.1 | 256 nM | 0.026 s⁻¹ | 100000 M⁻¹ s⁻¹ | 230 nM | 0.024 s⁻¹ | 100000 M⁻¹ s⁻¹ | – | – | – | – | –
6 | P01_F02 scFv-Fc fusion (scFv, V domains shown, Tested as scFv-Fc fusion) VH: QVQLVESGGGLVQAGGSLRLSCAASRRSSRSWAMHWVRQAPGKGLEWVAVISYDGRLKYYADSVKGRFTISRDNAEYLVYLQMNSLRAEDTAVYYCAADVESALAYGEPYHHMDVWGQGTLVTVSS VL: QSVLTQPPSASGTPGQRVTISCSGSSSNIGRNYVYWYQQLPGTAPKLLIYRTSQRPSGVPDRFSGSKSGTSASLAISGLRSEDEADYYCATWDDSLSGWVFGTGTKLTVL | > 50 | – | – | – | 188 nM | 0.011 s⁻¹ | 61000 M⁻¹ s⁻¹ | – | – | – | – | –
7 | P05_A11 scFv-Fc fusion (scFv, V domains shown, Tested as scFv-Fc fusion) VH: QVQLVESGGGLVQAGGSLRLSCAASRRSSRSWAMHWVRQAPGKGLEWVAVISYDGRLKYYADSVKGRFTISRDNAEYLVYLQMNSLRAEDTAVYYCAASDDADIFDDYSYGAMDYWGQGTLVTVSS VL: QSVLTQPPSASGTPGQRVTISCSGSSSNIGRNYVYWYQQLPGTAPKLLIYMTSQRPSGVPDRFSGSKSGTSASLAISGLRSEDEADYYCASWDDNLRAWVFGTGTKLTVL | 2.5 | 580 nM | 0.05 s⁻¹ | 87000 M⁻¹ s⁻¹ | 235 nM | 0.028 s⁻¹ | 120000 M⁻¹ s⁻¹ | – | – | – | – | –
8 | P01_H04 scFv-Fc fusion (scFv, V domains shown, Tested as scFv-Fc fusion) VH: QVQLVESGGGLVQAGGSLRLSCAASRRSSRSWAMHWVRQAPGKGLEWVAVISYDGRLKYYADSVKGRFTISRDNAEYLVYLQMNSLRAEDTAVYYCAADMDDMLSYYNSFDIWGQGTLVTVSS VL: not shown | > 2 | – | – | – | 889 nM | 0.076 s⁻¹ | 85000 M⁻¹ s⁻¹ | – | – | – | – | –

The next lines start with the values.

Row | Ratio: KD with MTX / KD without MTX [1] | Kd [2] | koff [2] | kon [2] | Kd [3] | koff [3] | kon [3] | Kd (human CD33 antigen [4]) | Ratio: KD with MTX / KD without MTX (human CD33 antigen [5]) | Kd (human CD33 antigen [6]) | koff (human CD33 antigen [6]) | kon (human CD33 antigen [6]) | Binder
9 | 1.3 | 480 nM | 0.073 s⁻¹ | 150000 M⁻¹ s⁻¹ | 360 nM | 0.071 s⁻¹ | 200000 M⁻¹ s⁻¹ | – | – | – | – | – | P08_E05 scFv-Fc fusion (scFv, V domains shown, Tested as scFv-Fc fusion) VH: QVQLVESGGGLVQAGGSLRLSCAASRRSSRSWAMHWVRQAPGKGLEWVAVISYDGRLKYYADSVKGRFTISRDNAEYLVYLQMNSLRAEDTAVYYCAADGKGAAWSEVDEPDVWGQGTLVTVSS VL: not shown
10 | > 11 | – | – | – | 823 nM | 0.27 s⁻¹ | 330000 M⁻¹ s⁻¹ | – | – | – | – | – | P07_H08 scFv-Fc fusion (scFv, V domains shown, Tested as scFv-Fc fusion) VH: QVQLVESGGGLVQAGGSLRLSCAASRRSSRSWAMHWVRQAPGKGLEWVAVISYDGRLKYYADSVKGRFTISRDNAEYLVYLQMNSLRAEDTAVYYCAAGFDWGWDSSDIYSAMDYWGQGTLVTVSS VL: DIQMTQSPSSLSASVGDRVTITCRASQNIGRYLHWYQQKPGKAPKLLIYSASNLQSGVPSRFSGSGSGTDFTLTISSLQPEDFATYYCQQSYSSPFTFGQGTKVEIK
11 | 3.9 | 25 nM | 0.00072 s⁻¹ | 29000 M⁻¹ s⁻¹ | 6.3 nM | 0.00067 s⁻¹ | 110000 M⁻¹ s⁻¹ | – | – | – | – | – | P14_E03 scFv-Fc fusion (scFv, V domains shown, Tested as scFv-Fc fusion) VH: QVQLVESGGGLVQAGGSLRLSCAASRRSSRSWAMHWVRQAPGKGLEWVAVISYDGRLKYYADSVKGRFTISRDNAEYLVYLQMNSLRAEDTAVYYCAAAPRVDWSDVSSGIDYWGQGTLVTVSS VL: QSVLTQPPSASGTPGQRVTISCSGSISNIGTNNVYWYQQLPGTAPKLLIYRNNQRPSGVPDRFSGSKSGTSASLAISGLRSEDEADYYCSAWDDSLSGVVFGTGTKLTVL
12 | 7.5 | 1390 nM | 0.033 s⁻¹ | 24000 M⁻¹ s⁻¹ | 185 nM | 0.013 s⁻¹ | 71000 M⁻¹ s⁻¹ | – | – | – | – | – | P08_D06 scFv-Fc fusion (scFv, V domains shown, Tested as scFv-Fc fusion) VH: QVQLVESGGGLVQAGGSLRLSCAASRRSSRSWAMHWVRQAPGKGLEWVAVISYDGRLKYYADSVKGRFTISRDNAEYLVYLQMNSLRAEDTAVYYCAADDDGDVYAGYSYGGFDYWGQGTLVTVSS VL: not shown
13 | 9.5 | 2530 nM | 0.13 s⁻¹ | 50000 M⁻¹ s⁻¹ | 266 nM | 0.022 s⁻¹ | 82000 M⁻¹ s⁻¹ | – | – | – | – | – | P15_F02 scFv-Fc fusion (scFv, V domains shown, Tested as scFv-Fc fusion) VH: QVQLVESGGGLVQAGGSLRLSCAASRRSSRSWAMHWVRQAPGKGLEWVAVISYDGRLKYYADSVKGRFTISRDNAEYLVYLQMNSLRAEDTAVYYCAAARDVDGSGYDTIDVWGQGTLVTVSS VL: not shown
